We go through 15 sequences from the DeepSol protein solubility set.

This series can be described thus: soluble on expression in E. coli; label from the status in PepcDB or PDB records.
Consider “ARLRAGFEAAGAQGVETPILQPAETLLDLYGEDIRARAYVTSDALRGEQMLRPDFTVPVVQKHMEHGAEPARYTYAGEVFRRQEHDPDRANEYIQVGYEVFDRTNPAAADAEVFALIAQALDGLALRAATGDIGILMAAVEGLKTTEPRKAALMRHIWRPRRFRALLDRYAGRTTVPPARAALLAESEPLADGAPEIGKRSRAEVEARIEVLRADAAAAPISDNEMAGLDALLSVRETMPYALEHLRDIAVDLPQITPALDRLEARIAALRARGINVDRLDFEASYGRTSMEYYDGFVFGFYAERRPDLPPIATGGRYDALTRRLGNGAEIPAVGGVLRPGLMLLLAEAE”, for which the “soluble on expression in E. coli” value was “not soluble”.

For “MSLNHPSSTPVPPLDATPARALGEFIRAHRERLSPQAVGLPPGPRRRTPGLRREEVAQLCGVSPTWYTWIEQGRPVSASADALARIAVALQLSKAERAYLFELAAQRDPAEPDVAGGDLPPTLAATVAAIATPAYVMDRQWNALAWNTPAAALFSGWLDGEHDRNLLRFTFMSPAARTLIVDWETRARRMAAEFRADSIRHLTDAPTRALIDALTAGSDAFAQYWASQDVFEREGGLREFDHPADGRMVYQQITLKPAHREDLKLVVLVRDEGHHHHHH”, the “soluble on expression in E. coli” value is reported as “soluble”.

In the case of “MSDDHHDDEHFHTGDSGAAATFPKQCSALRKNEHVMIKGRPCKIVEMSTSKTGKHGHAKVHMVAIDIFTSKKLEDICPSTHNMDVPVVKRREYLLMAIDDGYCSLMDPESCEQKDDLKLPDTELGQQIRDAYEKDEGSVLVQVVSAIGEEAILGWKVSTKE”, the “soluble on expression in E. coli” value is recorded as “not soluble”. As to “GAMMPVPNPTMPVKGAGTTLWVYKGSGDPYANPLSDVDWSRLAKVKDLTPGELTAESYDDSYLDDEDADWTATGQGQKSAGDTSFTLAWMPGEQGQQALLAWFNEGDTRAYKIRFPNGTVDVFRGWVSSIGKAVTAKEVITRTVKVTNVGRPSMAE”, the “soluble on expression in E. coli” value is “soluble”. With “MAHHHHHHMAIPPHGFIEAIHASPLRCVLYVMGAGSSAIAQLTSVAGCSRTLLDARVPYAMAAALQMLDDQPPKMVSATVARQMAQHAHHRAVEYSNGDDDGTLVGIGSTSAVQTNRIRHGKDSAFVAAWSQRQVVEFAMELPGHLARAEQEEQVTLLLFKALAECAKVPFEISFVVEPKRISYIVPDSPLRRLLQGEMKFLVFNTYGELRANFVPYVAETSFAVKPENSWKALLFPGSFRPLHWGHTELARAAVRAMATMKGTLNSTSTDTSSPSWNVPDASNVQVTYEIAVDNADKGIIDSDVELKKRVQQFLQRGARVAVTRARLFTEKALLFPGHGFIVGIDTMKRILDPKYYDNSREAMLRAMEFIREQGGYFVVAGRASGGKDAVWEDLTSIEVPAEVESMLISIRKEDFCVDVSSTMLRERNKSTC”, the “soluble on expression in E. coli” value is given as “not soluble”.

With “HRTRIEDESIHKLVLDAHRCIHQHLDVLHQQLHQHCEECDLSNIDDAGLEQRLNEWRDEDDSSARMVLQQLHLIYRMLPELHSLASKFAVRVN”, the “soluble on expression in E. coli” value was “not soluble”. For “MNLNIETSRRIELIDITSEVKEEVRISGVREGVCIISTRHTTAGIIVNENENGLREDILNMLERLVPQGAGYRHDRIDNNADSHLKAILLGSSEALPIVKGELELGTWQSIFFAEMDGPRNRAVNLTILKTELEHHHHHH”, the “soluble on expression in E. coli” value is reported as “soluble”. For the sequence “MGSDKIHHHHHHMKRIRNISVVGMGAVGCAYGRKLYKLNPNNFKIIADDKRKEKLTKNGFLINGEKYDFKCVSPNENLGKDDLIIIAVKYNQLEEAIEEIRNYVGENTIILSFLNGIKSEEEIGKVYGMDKILYSYCVLESTRKGSEVYVSDGYKIVFGQKESDNKYEKIKAVRELFDDAEIDYEIPVDIIHSMWSKFMFNVGINPVSAILKANYGMLQKNKYARETMVSAMMEVINISQKASVNLKIEEINHWLAVLDECELHGKTSMCQDILMGRKTEIDMLSGEVCALGEKYGVDTPVNRTLFNMVKSIE”, the “soluble on expression in E. coli” value is reported as “not soluble”. For the sequence “MASGQDKTHIDYAYELDITVKPDSRVPVFNREFATFTGAGVPLFSLGGGPIRYALAEVLAKFHARRGYYVVETPIIASTELFKVSGHIEFYRNNMYLFDIEGHEFAVKPMNCPYHILLFLNEVAKHRSKLPLPFKVFEFGRVHRYEPSGSIYGLLRVRGFTQDDAHIIVPGGRVIDVVYDVFEEMKLVLERLFKLGVSSETFKVRLSMSDKSLIGKEFMGSKEEWEGAEEALREAASRINEKYGIDIVELEGEAAFYGPKLDFIMMVEESGVSKEWQMGTIQFDFNLPRRFRLYDVVREEFGIEEVYIIHRALLGSIERFLGVYLEHRRGRMPFTLAPIQFAVIAVKTGGEVDREIEDLASSIAKGLLDKGFRVAVKGSSKTGLSSDVRHIESTAKPAVNVFIGAKEVREKVLDVRVFDLESMKRRRLAIAYGDAADAVENLAAVAEELESPVRSLSGQAPRIPADFSFML”, the “soluble on expression in E. coli” value is “soluble”. For the sequence “MKTTGAGQLGTQLGKIKTSLRQQIHTGVVSQGQKLPSERELSELFSTTRITIKDALVSLETEGLIYREERRGWYVSPERICYNPLSRSHFHQMIREQHRIAATQLISVRSEMAAGDYAKALDIEQMTPIHIIERLRCIDGRAVLFVENVLKASLFDGILAENLTMSLTGIYREKYGYETMRSRFDVIPTSAPAHVAKALNLAEGQPVLKICRVNYKQDGELMDCELEYWRPDAVMIRIDSVG”, the “soluble on expression in E. coli” value is listed as “not soluble”.

For “MGSDKIHHHHHHVPLNSPLQLSLPVHLPDDETFNSYYPAAGNDELIQKLRANAEGQGEAAIYLWGPVKSGRTHLMHAACAHANEVERRSFYIPLGIHASISTALLEGLEQLDLVCIDDVDAIAGHPVWEEAIFDLYNRVAEHKNCALVVSGSSSPADAGFLLPDLVSRMQWGLNYQLQPMADDEKLAALQRRAAMRGLQLPEDVGRFLLNRMARDLRTLFDVLDKLDKASLVHQRKLTIPFAKEMLHL”, the “soluble on expression in E. coli” value was “not soluble”.

Consider “MWLGYMNKSIPTTRKTRTFKAMSIEFSAPAKMKIEVWSDIMCPFCYIGKKRLDDALSTFDQAGRIEVEYKSFELMPGLETHPLRSDVEYLADAKGMSLEQARQMNGQVQAMAQATGLEMNPDETIAANTINAHRLTHFAKAHGKQQEVAQELFKAHFVDGKNVDDLDVLVSIAAEVGLDASAAREALESDVYTNEVQQDVHEARQLGVQGVPFFVFDRKYAINGAQQEEVFTGTVEKAFEEWAAENPVSPFEVIDGQSCSVDGTCN”, for which the “soluble on expression in E. coli” value was “not soluble”.

In the case of “MGSDKIHHHHHHMDHIQAMRVFVRIVELGSFSRAAERLALPRATVSNTIKQLEGRLGVRLLQRTTRQVQITDEGRVYYERCLQLLAEIEEIDTLFTQQKLQPVGKVRVDMPHSLAREIVVPALGEFYARYPQVTLMLSANDAAINVLREGVDCVLRAWQTDDETLATRHLPSMPQVTCASADYLARYGVPRSLDELSGHHMVGYFSLRTEYLYPLEFMSGDERITRMLPGTLQVNGADAYIAGACAGLGIIQAPRRGLISLLDGGELVEILPEIPPPAMPLYVMYTPGRFLAPRIRVFIEWLDELFTRNAAVR”, the “soluble on expression in E. coli” value was “not soluble”.

Take “MGHHHHHHSHMTDFEDKQVANNETMEDAMNSVQEVSVGDIVKGEVLAIEDKQVVVGIEGAGVEGVVPAKELSTLPVEDVHELVKVGDVLDLVVITSIGKDKENGSYLLSKRRLDAKKVWEEIEQDFQAGKVIEAPVTNVVKGGLVVDVGVRGFVPASMVEDHFVADFSEYKGQTLAFKIIEIEPSENRLILSHKAVVEAEKESKKEELLSSLHDGDVVEGKVARLTDFGAFIDLGGVDGLVHVSEIAHQHVGKPSDALTVGEDVQVKILSINPEEGRISLSIKETLPGPWTDIETKAAAGTVLDGTVKRLTSFGAFVEVFPGVEGLVHISQISHKHIATPHEVLHEGDQVQVKVLEVNPEEHRIALSIKALEPKPESQEEPKEEQEYELPEENTGFTMGDILGDALSDAKEEE”: the “soluble on expression in E. coli” value is listed as “soluble”. For “GSHMEAPILYEDPPEKLTSKDGRAANMKITSWNVDGLRAWVKKNGLDWVRKEDPDILCLQETKCAEKALPADITAMPEYPHKYWAGSEDKEGYSGVAMLCKTEPLNVTYGIGKEEHDKEGRVITAEFPDFFLVTAYVPNASRGLVRLDYRKTWDVDFRAYLCGLDARKPLVLCGDLNVAHQEIDLKNPKGNRKNAGFTPEEREGFTQLLEAGFTDSFRELYPDQAYAYTFWTYMMNARSKNVGWRLDYFVLSSALLPGLCDSKIRNTAMGSDHCPITLFLAV”, the “soluble on expression in E. coli” value is on record as “soluble”.
